Like-named read-outs stand apart in the source and are kept apart here.
Key:
[1] = target: T1, human CCR8 (C-C chemokine receptor type 8) (human, UniProt P51685 1-355); experiment: cell-based or functional assay
[2] = target: T1, human CCR8 (C-C chemokine receptor type …); experiment: FACS on HEK293T-h.CCR8 cells, test 2 (anti-human Alexa Fluor 647 secondary antibody)
Procedure: (§1) The affinity of humanized monoclonal antibodies against human CCR8 was assessed using FACS. The experimental procedure was as follows: HEK293T-h.CCR8 cells were digested and collected by centrifugation, followed by three washes with pre-cooled PBS. The cells were resuspended in 1% BSA (in PBS), with 3×10\hat{ }5 cells added to each well of a 96-well V-bottom plate (50 μL per well). Prepare the antibody dilution series in 1% BSA (in PBS), starting from 40 μg/mL. Perform a 3-fold serial dilution across 10 concentration points. Add 50 μL per well to the cells, so that the final antibody concentration in the wells starts from 20 μg/mL. Mix thoroughly and incubate at 4° C. for 1 hour. The cells were collected by centrifugation, washed three times with pre-cooled PBS, resuspended in 50 μL 1% BSA (in PBS), and 1 μL of fluorescent secondary antibody (Biolegend, Catalog No.: 410708) was added to each well. The mixture was incubated at 4° C. for 30 minutes, followed by three washes with pre-cooled PBS. The cells were then resuspended in 200 μL PBS for detection.

human CCR4 [3] = target: T2, human CCR4 (human, UniProt P51679 1-360); experiment: FACS on HEK293T-h.CCR4 cells
T2 construct: whole, on cells; also called h.CCR4; HEK293T-h.CCR4
T2 sequence (looked up): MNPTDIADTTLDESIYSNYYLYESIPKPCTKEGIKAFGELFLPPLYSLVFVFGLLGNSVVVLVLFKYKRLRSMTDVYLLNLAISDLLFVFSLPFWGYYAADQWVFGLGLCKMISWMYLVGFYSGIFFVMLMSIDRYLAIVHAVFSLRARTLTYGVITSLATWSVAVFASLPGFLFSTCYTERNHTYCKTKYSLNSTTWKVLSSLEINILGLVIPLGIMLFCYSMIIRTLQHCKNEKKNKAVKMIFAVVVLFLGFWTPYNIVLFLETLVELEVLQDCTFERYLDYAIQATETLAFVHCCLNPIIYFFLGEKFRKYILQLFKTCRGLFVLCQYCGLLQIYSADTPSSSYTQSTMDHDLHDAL
Procedure: The specificity of humanized monoclonal antibodies against human CCR4 was assessed using FACS. HEK293T-h.CCR4 cells were collected, washed, and resuspended in 1% BSA (in PBS). Each well of a 96-well V-bottom plate received 3×10\hat{ }5 cells, followed by the addition of the test antibodies at a final concentration of 20 μg/mL and incubation at 4° C. for one hour. After washing, 1 μL of fluorescent secondary antibody (Biolegend, Catalog No.: 410708) was added, and the mixture was incubated. The cells were washed and resuspended for detection using a flow cytometer (Beckman, Model: CytoFLEX).

[4] = target: T1, human CCR8 (C-C chemokine receptor type …); experiment: FACS on HEK293T-h.CCR8 cells, test 1
Procedure: as §1

cynomolgus monkey CCR8 [5] = target: T3, cynomolgus monkey CCR8 (cynomolgus monkey, UniProt G7NYJ2 1-355); experiment: FACS on HEK293T-c.CCR8 cells
T3 construct: whole, on cells; also called c.CCR8; HEK293T-c.CCR8
T3 sequence (G7NYJ2 entry or part of it): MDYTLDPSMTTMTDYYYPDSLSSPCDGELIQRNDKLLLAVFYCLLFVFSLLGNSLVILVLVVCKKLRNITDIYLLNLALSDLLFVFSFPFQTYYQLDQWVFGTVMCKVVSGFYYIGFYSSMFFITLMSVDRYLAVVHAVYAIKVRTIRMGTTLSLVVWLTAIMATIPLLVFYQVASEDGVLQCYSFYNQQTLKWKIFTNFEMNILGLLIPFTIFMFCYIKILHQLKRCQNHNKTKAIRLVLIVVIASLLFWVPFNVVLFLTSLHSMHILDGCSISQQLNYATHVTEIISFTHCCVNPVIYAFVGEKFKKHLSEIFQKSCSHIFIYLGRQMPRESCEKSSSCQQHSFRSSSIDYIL

human CCR4 [6] = target: T2, human CCR4; experiment: FACS on HEK293T-h.CCR4 cells; remark: listed apart in the source
Procedure: Evaluate the specificity of anti-human CCR8 mouse monoclonal antibodies using FACS. The experimental steps are as follows: digest HEK293T-h.CCR4 cells, centrifuge to collect the cells, and wash three times with pre-cooled PBS. Resuspend the cells in 1% BSA (in PBS), adding 3×10\hat{ }5 cells in a volume of 50 μL to each well of a 96-well V-bottom plate. Dilute the antibody to be tested in 1% BSA (in PBS) to 20 μg/mL, take 50 μL per well, and add it to the cells, resulting in a final antibody concentration of 10 μg/mL. Mix and incubate at 4° C. for 1 hour. Centrifuge to collect the cells and wash three times with pre-cooled PBS. Resuspend the cells in 50 μL of 1% BSA (in PBS), add 1 μL of fluorescent secondary antibody to each well, mix, and incubate at 4° C. for 0.5 hours. Centrifuge to collect the cells, wash three times with pre-cooled PBS, resuspend the cells in 200 μL of PBS, and analyze them.

[7] = target: T1, human CCR8 (C-C chemokine receptor type …); experiment: FACS on HEK293T-h.CCR8 cells, mouse antibody
cynomolgus monkey CCR8 [8] = target: T3, cynomolgus monkey CCR8; experiment: FACS on HEK293T-c.CCR8 cells, mouse antibody

T1 sequence (P51685 whole entry): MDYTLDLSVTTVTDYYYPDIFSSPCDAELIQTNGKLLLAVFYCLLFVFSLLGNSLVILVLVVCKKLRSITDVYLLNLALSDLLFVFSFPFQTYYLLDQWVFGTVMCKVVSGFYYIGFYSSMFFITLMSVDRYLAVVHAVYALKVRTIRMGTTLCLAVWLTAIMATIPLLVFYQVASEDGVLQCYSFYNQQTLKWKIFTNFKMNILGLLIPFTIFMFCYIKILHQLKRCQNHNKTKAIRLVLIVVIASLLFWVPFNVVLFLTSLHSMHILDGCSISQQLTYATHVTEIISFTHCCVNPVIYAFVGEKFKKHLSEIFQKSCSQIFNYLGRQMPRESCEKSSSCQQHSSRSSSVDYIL

Row | Binder | ADCC activity EC50 [1] | ADCP activity EC50 [1] | Inhibition rate of CCL1-mediated cell migration (%) at 50 µg/mL, BaF3-h.CCR8 cells, Transwell [1] | EC50 [2] | binding result (human CCR4 [3]) | EC50 [4] | binding result (cynomolgus monkey CCR8 [5]) | binding result (human CCR4 [6]) | EC50 [7] | EC50 (cynomolgus monkey CCR8 [8])
1 | 13F3H6-hz-eADCC (13F3H6-hz with ADCC-enhanced IgG1 Fc) (antibody, also called 13F3H6-eADCC) heavy: EVQLVESGGGLVQPGESLRLSCAASGFTFNAYAMNWVRQAPGQGLEWVARIRTKSNNYATYYADSVKGRFTISRDDSKNTLYLEMNSLRAEDTAVYYCVRHKKVREGYAMDYWGQGTLVTVSSASTKGPSVFPLAPSSKSTSGGTAALGCLVKDYFPEPVTVSWNSGALTSGVHTFPAVLQSSGLYSLSSVVTVPSSSLGTQTYICNVNHKPSNTKVDKKVEPKSCDKTHTCPPCPAPELVGGPSVFLLPPKPKDTLMISRTPEVTCVVVDVSHEDPEVKFNWYVDGVEVHNAKTKPPEEQYNSTLRVVSVLTVLHQDWLNGKEYKCKVSNKALPAPIEKTISKAKGQPREPQVYTLPPSREEMTKNQVSLTCLVKGFYPSDIAVEWESNGQPENNYKTTPLVLDSDGSFFLYSKLTVDKSRWQQGNVFSCSVMHEALHNHYTQKSLSLSPGK light: not shown | 0.00117 µg/mL | 0.0647 µg/mL | 73.5% | 0.0244 µg/mL |  |  |  |  |  | 
2 | 96F1C4-hz (humanized anti-human CCR8 monoclonal antibody, human IgG1) (antibody, V domains shown, Built in the pTT5-h.IgG1 vector) VH: QVQLVESGAEVKKPGSSVKVSCKASGYTFTDYEMHWVRQAPGQGLEWMGAFDPKTGGTAYAQKFQGRVTLTADKSTSTAYMELSSLRSEDTAVYYCARRRFFDVWGQGTLVTVSS VL: DAVMTQTPLSLSVTPGQPASISCRSSQSLEHSNGNTYLHWYLQKPGQSPQLLIYRVSNRFSGVPDRFSGSGSGTDFTLKISRVEAEDVGVYYCLQVTHVPFTFGQGTKVEIKR | 0.0052 µg/mL | 0.107 µg/mL | 60.1% |  | no binding (tested: 20 µg/mL) | 0.0796 µg/mL | no binding |  |  | 
3 | 76H1F11-hz (humanized anti-human CCR8 monoclonal antibody, human IgG1) (antibody, V domains shown) VH: QVQLVESGAEVKKPGSSVKVSCKASGYTFTDYEIHWVRQAPGQGLEWMGAIKPETGGTAYAQKFQGRVTLTSDKSTSTAYMELSSLRSEDTAVYYCTRRRYFDVWGQGTLVTVSS VL: DAVMTQTPLSLSVTPGQPASISCRSSQSLEHSDGITYLHWYLQKPGQSPQLLIYRVSNRFSGVPDRFSGSGSGTDFTLKISRVEAEDVGVYYCLQVTHVPFTFGQGTKVEIKR | 0.0148 µg/mL |  |  |  | no binding (tested: 20 µg/mL) | 0.322 µg/mL | no binding |  |  | 

Second part, the binder after the results:

Row | ADCC activity EC50 [1] | ADCP activity EC50 [1] | Inhibition rate of CCL1-mediated cell migration (%) at 50 µg/mL, BaF3-h.CCR8 cells, Transwell [1] | EC50 [2] | binding result (human CCR4 [3]) | EC50 [4] | binding result (cynomolgus monkey CCR8 [5]) | binding result (human CCR4 [6]) | EC50 [7] | EC50 (cynomolgus monkey CCR8 [8]) | Binder
4 |  |  |  |  |  |  |  | no binding (tested: 10 µg/mL) | 0.16 nM |  | 96F1C4 (anti-human CCR8 mouse monoclonal antibody) (antibody, V domains shown, Mouse antibody purified from hybridoma supernatant) VH: QVQLQQSGAELVRPGASVTLSCKASGYTFTDYEMHWVKQTPVHGLEWIGAFDPKTGGTAYNQKFKGKAILTADKSSSTAYMELRSLTSEDSAVYYCARRRFFDVWGAGTTVTVSS VL: DAVMTQTPLSLPVSLGDQASISCRSSQSLEHSNGNTYLHWYLQKPGQSPQLLIYRVSNRFSGVLDRFSGSGSGTDFTLKISRVEAEDLGVYFCLQVTHVPFTFGTGTKLEIK
5 |  |  |  |  |  |  |  | no binding (tested: 10 µg/mL) | 0.37 nM | 0.288 µg/mL | 13F3H6 (anti-human CCR8 mouse monoclonal antibody) (antibody, V domains shown, Mouse antibody purified from hybridoma supernatant) VH: EVQLVESGGGLVRPKGSLKFSCAASGFTFNAYAMNWVRQAPGKGLEWVARIRTKSNNYATYYADSVKDRFTISRDDSENMLYLQMNNLKTEDTAIYYCVRHKKVREGYAMDYWGQGTSVTVSS VL: DIVLTQSPASLVLSLGQRATISCRASKSVSTSGYTYMHWYQQKPGQPPKLLIYLASNLESGVPARFSGSGSGTDFTLNIHPVEEEDAATYYCQHSRELPFTFGSGTKLEIK

Reference: US20250388684A1 (SICHUAN SWIFTBIO BIOTECHNOLOGY, published 2025)
